Tests used:
[1] = system: Vγ9Vδ2-T cells present in the bone marrow of MM patients; assay: Activation of Vγ9Vδ2-T cells in bone marrow mononuclear cells from MM patients; type: cell-based, human; conditions: 10 nM, overnight
Description: (§1) FIG. 17: V19S76K-5C8 is active against primary multiple myeloma. (A) Example of CD40 expression on primary MM cells, as detected using anti-CD40 PE antibody, clone MAB89, Beckman Couter, IM1936U. Representative histograms of 4 donors (B) Bone marrow of MM patients was cultured overnight in the presence or absence of healthy donor-derived Vγ9Vδ2-T cells in a 1:1 (Vγ9Vδ2-T:plasma cell) ratio in the absence or presence of V19S76K-5C8 (10 μM or 10 nM). Live plasma cells were quantified by flow cytometry using counting beads (n=5). (C, D) Mononuclear cells from the bone marrow of MM patients were cultured overnight with V19S76K-5C8 (VHH; 10 nM), aminobisphosphonate (ABP; 10 μM zoledronic acid (positive control)) or medium control in the presence of brefeldin, monensin and anti-CD107a to measure (C) cytokine production and (D) degranulation by flow cytometry (n=6). Data are presented as mean and SEM. *P<0.05, **P<0.01. (B-D: repeated-measures one-way ANOVA followed by Dunnett's post hoc test compared to condition without antibody).
Similarly, Vγ9Vδ2-T cells present in bone marrow mononuclear cells from MM patients degranulated after culture with the bispecific VHH V19S76K-5C8 (FIG. 17D).

CD40 = target: T1, CD40 (Homo sapiens, UniProt P25942); assay: CD40 antagonistic activity in primary CLL cells: pre-incubation, then rmCD40L for 48 h; type: cell-based; conditions: pre-incubation, then rmCD40L for 48 hours; FIG. 8A-C
T1 construct: Primary chronic lymphocytic leukemia (CLL) cells express CD40 on the cell surface; endogenous in cells; host or cells: primary CLL PBMCs from untreated CLL patients
Description: PBMCs (≥90% CD5^+CD19^+) from untreated CLL patients were obtained and cryopreserved as described in […]. Thawed cells were kept in complete IMDM.
To test whether the VHH antagonizes CD40 stimulation, primary CLL PBMCs were pre-incubated with VHH or medium control for 30 minutes at 37° C. and subsequently cultured for 48 hours in the presence of rmCD40L (100 ng/mL).
After 48 hours, cells were analyzed by flow cytometry as described in Example 4.
To assess whether binding of the VHH has antagonistic effects, primary CLL PBMCs were pre-incubated with V19S76K-5C8 or medium control and then cultured with rmCD40L for 48 hours and analyzed by flow cytometry as described in Example 5.

Vγ9Vδ2+ cells = target: T2, Vγ9Vδ2+ cells (Homo sapiens, UniProt A0JD36); assay: Bispecific VHH binding to Vγ9Vδ2-T cell lines, flow cytometry, non-linear regression; conditions: FIGS. 6A and B, read-out: apparent Kd
T2 construct: endogenous in cells; host or cells: healthy donor-derived, expanded Vγ9Vδ2-T cell lines
T2 sequence (A0JD36 20-115): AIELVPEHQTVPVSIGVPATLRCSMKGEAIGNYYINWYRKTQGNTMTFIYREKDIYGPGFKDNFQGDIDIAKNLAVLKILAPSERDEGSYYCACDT
Description: The CLL-derived cell line CII was grown in complete IMDM. Purified Vγ9Vδ2-T cell lines were generated as described previously (de Bruin et al. (2017), Oncoimmunology 7(1): e1375641). In short, Vδ2^+-T cells were isolated from healthy donor (HD) PBMCs using FITC-conjugated anti-Vδ2 TCR (2257030, Sony, San Jose, Calif.) in combination with anti-mouse IgG microbeads (Miltenyi Biotec, Bergisch Gladbach, Germany) and cultured weekly with irradiated feeder mix consisting of PBMCs from 2 HDs, JY cells, IL-7 (10 U/mL), IL-15 (10 ng/mL, R&D Systems) and phytohaemagglutinin (PHA; R30852801, Thermo Fisher Scientific).
Purity of Vγ9Vδ2-T cell lines was maintained at >90%.
VHH binding was tested as described in Example 6.
After 48 hours, cells were analyzed by flow cytometry as described in Example 2.

CD40+ CII target cells = assay: Cytotoxicity assay: CII target cells with Vγ9Vδ2-T cells; type: cell-based, human; conditions: 1:1 ratio
Description: (§2) CD40^+ CII cells and Vγ9Vδ2-T cells were grown as described in Example 7.
CII target cells were labeled with carboxyfluorescein succinimidyl ester (CFSE; C1157, Thermo Fisher Scientific) and incubated with VHH or medium control for 30 minutes at 37° C. Target cells were then cocultured overnight with Vγ9Vδ2-T cell lines in a 1:1 ratio.
Viability was measured as described in Example 4.

primary MM cells = assay: Lysis of primary multiple myeloma cells by healthy donor-derived Vγ9Vδ2-T cells; type: cell-based, human; conditions: overnight with healthy donor-derived Vγ9Vδ2-T cells, 1:1; FIG. 17B
Description: as §1
Because CD40 is also expressed on primary multiple myeloma (MM) cells (Pellat-Deceunynck et al. (1994) Blood 84:2597) (FIG. 17A) and CD40 stimulation exerts various biological effects, including proliferation of MM cells, we assessed the efficacy of V19S76K-5C8 in primary bone marrow samples from MM patients.

Vγ9Vδ2-T cells = assay: Cytokine and degranulation assay: Vγ9Vδ2-T cell lines with CD40+ CII cells; type: cell-based, human; conditions: for degranulation of Vγ9Vδ2-T cells (CD107a): FIG. 10A
Description: as §2
Vγ9Vδ2-T cell lines were incubated with V19S76K-5C8 or medium control for 30 minutes at 37° C. Subsequently, Vγ9Vδ2-T cells were cocultured with CII cells for 4 hours in a 1:1 ratio in the presence of Brefeldin A (10 μg/mL; B7651, Merck), GolgiStop (554724) and PECy7-conjugated anti-CD107a (561348, both BD Biosciences). Cells were then washed and surface staining was performed with Fixable Viability Dye eFluor506 (65-0866-14), AF700-conjugated anti-CD3 (56-0038-82, both Thermo Fisher Scientific) and FITC-conjugated anti-Vγ9-TCR (IM1463, Beckman Coulter) antibodies. Cytofix/Cytoperm reagent (554722) was used for detection of intracellular cytokines with BUV395-conjugated anti-IFN-γ (563563), […] anti-TNF-α (563418, all BD Biosciences) and PE/Dazzle594-conjugated anti-IL-2 (500343, Biolegend).
Samples were measured on an LSRFortessa cytometer (BD Biosciences) and analyzed with Flowjo MacV10.

T1 sequence (P25942 21-277): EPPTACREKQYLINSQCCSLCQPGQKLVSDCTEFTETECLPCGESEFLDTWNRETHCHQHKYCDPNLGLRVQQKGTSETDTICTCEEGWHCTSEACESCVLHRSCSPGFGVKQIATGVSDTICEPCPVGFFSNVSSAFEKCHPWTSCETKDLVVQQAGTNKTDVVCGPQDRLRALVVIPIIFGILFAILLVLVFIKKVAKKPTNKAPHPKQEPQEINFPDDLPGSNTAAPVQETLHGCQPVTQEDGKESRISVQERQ

B1: V19S76K-5C8: tag-less bispecific anti-CD40-anti-Vγ9Vδ2-TCR VHH, SEQ ID NO:23 (protein)
VHH: QVQLQESGGGLVQAGGSLRLSCAASGRTFGRSAMGWFRQAPGKEREFVAAIGTRGGSTKYADSVKGRFTISTDNAKNTVYLQMDSLKPEDTAVYRCAVRGPGYPSAAIFQDEYHYWGQGTQVTVSSGGGGSEVQLVESGGGLVQAGGSLRLSCAASGRPFSNYAMGWFRQAPGKEREFVAAISWSGGSTSYADSVKGRFTISRDNAKNTVYLQMNSPKPEDTAIYYCAAQFSGADYGFGRLGIRGYEYDYWGQGTQVTVSS
modifications: antibody sequence
In the case of B1, the “production of IFN-γ and TNF-α by bone marrow Vγ9Vδ2-T cells” value ([1]; FIG. 17C) is reported as “triggered to produce the pro-inflammatory cytokines IFN-γ and TNF-α”, the “degranulation of bone marrow Vγ9Vδ2-T cells” value ([1]; FIG. 17D) is reported as “degranulated” and the “prevention of the effects of CD40 stimulation (CD80, CD86 and CD95 expression)” value (CD40) is reported as “prevented the effects of CD40 stimulation in a dose-dependent manner”. The Kd (Vγ9Vδ2+ cells) was 0.0012 µM, the EC50 (CD40+ CII target cells; lysis of CII target cells with Vγ9Vδ2-T cells, FIG. 11B, read-out: half maximal effective concentration) was 9.1 µM and the “lysis of CII target cells” value (CD40+ CII target cells; overnight with Vγ9Vδ2-T cells, FIG. 11A) was “increased markedly”. The “lysis of primary MM cells” value (primary MM cells) was “lysed primary MM cells”, the “degranulation of Vγ9Vδ2-T cells (CD107a)” value (Vγ9Vδ2-T cells; CD40+ CII cells not present) was “did not induce this level of degranulation” and the “degranulation of Vγ9Vδ2-T cells (CD107a)” value (Vγ9Vδ2-T cells; with CD40+ CII cells, 1:1 ratio, 4 hours) was “the large majority of Vγ9Vδ2-T cells degranulated”. The “IFN-γ, TNF-α and IL-2 production by Vγ9Vδ2-T cells” value (Vγ9Vδ2-T cells; with or without CD40+ CII cells, FIG. 10B-D) was “A similar pattern was observed”.
